Source: the DeepSol protein solubility set

Assay: soluble on expression in E. coli; label from the status in PepcDB or PDB records

Question: Which “soluble on expression in E. coli” value does the source give for “MKEKDLIRFMDRMIEERKAEYALGTAHIYQASRNALSAFLKAHDIPFKRVRPELLKQFERFLRRRGNSWNTVSTYMRVLRAVYNRAVDRRLAPHVPHLFKAVYTGTQADIKRALKAEEMGQLLDTKCTRKQSELLQKTHHLFVLMFLLRGLPFVDLAYIQKKDLNGNILTYHRRKTGRQITITVTKDAMNIIREYMDTTTESPYLFPILSAEGGEDTIYREYQQALRIFNYQLTKLGELLGLTTELTSYTARHTWATLAYYLEVHPGIIREAMGHSSIKVTETYLKPFNIKKLDETNLSIIGYAKRSFEG” here?
Answer: The value was “not soluble”.

Question: With “GSNGMSQLPAPVSVESSWRYIDTQGQIHGPFTTQMMSQWYIGGYFASTLQISRLGSTPETLGINDIFITLGELMTKLEKYDTDPFTTFDKLHVQTTSSDS” as the sequence, how does the “soluble on expression in E. coli” value read?
Answer: Its value is “soluble”.

Question: For “MMAEFETVNDVKQLNGLALAYIGDAVYEVYVRRHLLAGGSVRPHELHRRAVRYVSARAQARVILALLDEGVLTEEEKDIVRRGRNAKSGTIPKNTDVQTYRHSTAFEALIGYHFLVNNEKRVDELIGRSFAIIEREERALE”, which “soluble on expression in E. coli” value is on record?
Answer: The value was “not soluble”.

Question: Which “soluble on expression in E. coli” value does the source give for “SADNGGYVPAVVIGTGYGAAVSALRLGEAGVQTLMLEMGQLWNQPGPDGNIFCGMLNPDKRSSWFKNRTEAPLGSFLWLDVVNRNIDPYAGVLDRVNYDQMSVYVGRGVGGGSLVNGGMAVEPKRSYFEEILPRVDSSEMYDRYFPRANSMLRVNHIDTKWFEDTEWYKFARVSREQAGKAGLGTVFVPNVYDFGYMQREAAGEVPKSALATEVIYGNNHGKQSLDKTYLAAALGTGKVTIQTLHQVKTIRQTKDGGYALTVEQKDTDGKLLATKEISCRYLFLGAGSLGSTELLVRARDTGTLPNLNSEVGAGWGPNGNIMTARANHMWNPTGAHQSSIPALGIDAWDNSDSSVFAQIAPMPAGLETWVSLYLAITKNPQRGTFVYDAATDRAKLNWTRDQNAPAVNAAKALFDRINKANGTIYRYDLFGTQLKAFADDFCYQPLGGCVLGKATDDYGRVAGYKNLYVTDGSLIPGSVGVNPFVTITALAERNVERIIKQDVTAS” here?
Answer: The value was “soluble”.

Question: For “MGSDKIHHHHHHMMQPVINAPEIATAREQQLFNGKNFHVFIYNKTESISGLHQHDYYEFTLVLTGRYFQEINGKRVLLERGDFVFIPLGSHHQSFYEFGATRILNVGISKRFFEQHYLPLLPYCFVASQVYRTNNAFLTYVETVISSLNFRETGLEEFVEMVTFYVINRLRHYREEQVIDDVPQWLKSTVEKMHDKEQFSESALENMVALSAKSQEYLTRATQRYYGKTPMQIINEIRINFAKKQLEMTNYSVTDIAFEAGYSSPSLFIKTFKKLTSFTPKSYRKKLTEFNQ”, which “soluble on expression in E. coli” value is on record?
Answer: Its value is “not soluble”.

Question: Which “soluble on expression in E. coli” value does the source give for “MSNNNLSVISLVSIGEHPTSRRPRRAEQDARAIELGLKLVGDNLQTLHAGELSDDASQQTALRSYLGMGLAEINLLEMPENADAVLVIAEYLKQQKIDIILTGVCAESGESSGMLPYLLAEQLGMAMVTSIAEILSIDEVNKQAEVLQALPRGQRRKLKVDLPFIASVDMAAALPRQSAFGPAMRGQFEATLGANFTDEESSTWQTADAKKRPKRLKIIKAKTAADRFKAATAKASGGGGKVVHGVEESAQAILDLLIEEGLV” here?
Answer: The value was “not soluble”.

Question: For “MTCLSRDWATAQRLVEWALASTRCECFNVDSNFMAGLCLVENPTKQHYSFEVRKQVVDRFNAGQSKMDLAREFGLSSDQLVSSWVRAWRAGGDEALRPKPKGRPKGSASSKPLTEEDRLRREVEKLRAENAYLKKLRDLRNQRRSLEHHHHHH”, which “soluble on expression in E. coli” value is on record?
Answer: The value was “soluble”.

Question: Which “soluble on expression in E. coli” value does the source give for “MDARIVNALIGSVYETIRDVLGIEPKTGKPSTVSHIEIPHSLVTVIGITGGIEGSLIYSFSSETALKVVSAMMGGMEYNQLDELALSAIGELGNMTAGKLAMKLEHLGKHVDITPPTVVSGRDLKIKSFGVILKLPISVFSEEDFDLHLSVKSGG” here?
Answer: Its value is “soluble”.

Question: With “MFIGGAIISFLFLFGYMWKEAHSNRIRHVTLSFPHFPDNGPPLTIFFISDIHRRSVSCRMLETVKGKADLVVIGGDLAEKGVPAARVRENVRRLQTVAPVYFVWGNNDDEVDYDLQSLLEEERVYVLKNKAEVWEHGGVPIALIGVGDVSRKEADIARALEHVPPESFRILACHNPAIIARLEDEQHISLVLSGHTHGGQIRLFSFGLYEKGGLKWHGNTALFTSNGYGTTGVPLRLGAPAETHLIKIVPGKLATEKKCLSKTGKTMLEHHHHHH” as the sequence, how does the “soluble on expression in E. coli” value read?
Answer: The value was “not soluble”.

Question: With “MGSDKIHHHHHHMHAVSHLASKDAQSNASPQVALIAEGGGQRGIFTAGVLDAWLDGGFDPFDLFIGTSAGSQNLSSFLARQKGYAKRLIRGLSRHKRFYRLGRGLVGGNVVDLDWYFEQTRQGMFKLDLNAATASLGHRQLLITTTNASDRKGYFLSPSSKSQWRELLKASSALPFLYKQGVKLTPWLNDNACNSDKACNNGAANHGGSHHSAALSEAIDSDFYLDGGLAAPLPVREAYRRGARKIVVIRTVSEDFQAQSAWVHKLKSWICVSGFCPKTIDYLVQHEQAYQDELDFIANPPEDVEIVQIFAAENLQSKLLGSTDADLRHDYHAGMNAGKQFLTQDPMALTQMNVHFQTQVQTNAHTQTHIQALSQIKPFSALSA” as the sequence, how does the “soluble on expression in E. coli” value read?
Answer: Its value is “not soluble”.

Question: For “MAIVSFKHKGLKLFYTTGSTKAIRPDHVKKLRVILTALTSATCPEMLKAPAFKMHPLKGELTGYYSIWVNGNWRVTFRFIGTDVELVDYQDYH”, which “soluble on expression in E. coli” value is on record?
Answer: The value was “not soluble”.

Question: For “MAHHHHHHMPPLHSRATRQLVKERSKIEGPRSLHRGIHYQENEAHASSYMQNAKKKRADHRDLLVHHQRINEDLQDIYTRTAALHSDNMTMEERIEESWKKYERIGGKRPANVRTHGQDAVLCANQTAVPYAERLAQVSQQKKELRERGAWERLTHGEAVDYSKGSALHAAKDKRVQMFQRRQLRRAHLLRRVGDPTPLKQSGTYDMNSGTLRVFNKTIRNVQREVAHDARIAEVRKRRKNSRSQWDLNESGNVNRPDQEILRYSRDWELGPQRKARGGGGGGGRGGRKRGRDEL”, which “soluble on expression in E. coli” value is on record?
Answer: Its value is “not soluble”.

Question: Which “soluble on expression in E. coli” value does the source give for “MGSDKIHHHHHHMKNSAPNKDGSIEANLTDLQVQTELYQWLSLVSHQRDKQAFTELFQFFAPKIKRFGMQRLGSNDKANELVQETMSNVWRKAHLYDGEKGAATTWVYTVMRNACFDMLRRIKTRNEQLLGDDIWPVEQALAENNPESETFSDHLMEQHMREHINKLPSSQQTVVKGVYFQSLSQEQLAQQLDVPLGTIKSRLRLALARLKLQMRDEYHD” here?
Answer: Its value is “not soluble”.

Question: Which “soluble on expression in E. coli” value does the source give for “MKRYVFMLSDGTGITAETLGNSLITQFENIQFEKITIPYIDSTHRAESVVLRINQCFSEQGTKPLVFMTLVDPEIRQAIKKAHACVFDLFSIFIGPLENELEEKSSYTVGRTHGVANVKSYSHRIEAIDFALSHDDGIKTRGYDKADIILIGVSRCGKTPSCLYMALQYGILAANYPFTEEDLVGFRLPEVLRPYKQKLFGLTIDAQRLQQIRSERRPNSKYASAEQCRLEVTEVEAMYQRENIPYINSTKYSIEEISTKVLAIAGLQRKILEHHHHHH” here?
Answer: Its value is “not soluble”.

Question: With “MGSDKIHHHHHHMKVTVTTLELKDKITIASKALAKKSVKPILAGFLFEVKDGNFYICATDLETGVKATVNAAEISGEARFVVPGDVIQKMVKVLPDEITELSLEGDALVISSGSTVFRITTMPADEFPEITPAESGITFEVDTSLLEEMVEKVIFAAAKDEFMRNLNGVFWELHKNLLRLVASDGFRLALAEEQIENEEEASFLLSLKSMKEVQNVLDNTTEPTITVRYDGRRVSLSTNDVETVMRVVDAEFPDYKRVIPETFKTKVVVSRKELRESLKRVMVIASKGSESVKFEIEENVMRLVSKSPDYGEVVDEVEVQKEGEDLVIAFNPKFIEDVLKHIETEEIEMNFVDSTSPCQINPLDISGYLYIVMPIRLA” as the sequence, how does the “soluble on expression in E. coli” value read?
Answer: The value was “soluble”.

Question: With “MGSSHHHHHHGKTIFVIVPTNEEQVAFLEALAKQDELNFDWQNPPTEPGQPVVILIPSDMVEWFLEMLKAKGIPFTVYVEEGGSENLYFQGGGGGGCCSLLFFVYIAFSLIHTLHHLFLFSECNISADERMDVPSEDYDVSIMIKAIHEVQDVLTSRQFATFSEVDTEIGKTLKRYEAFGDGFERFHVNLTKDALQSNDLQKSLKDMDKRCQDRLRDCASSQKDQINDILPFIRNTSSILVHGSGNLLALTIACSIQEHEGVRFYICEGRPARKGYPHGSGEQLLEKVLATPEGMRLKDKLHKYCTIVPDSGVSSVMNSVDFVIMGAYCVTEHGGLVHSTGSLQIAIVAAFRNVPCYVLCETFKFAHIFPLSTDDLKQPENGAGEVVPLVEFVPPSMITLIFSEQGIMPPSAVADEMFRFHTAPSAPGKRR” as the sequence, how does the “soluble on expression in E. coli” value read?
Answer: Its value is “not soluble”.

Question: For “MGSDKIHHHHHHMNPQPSGATVDKGSVNPEQISIKTFGGLGLSYLNSPMTILWESQKARILFCYLLISYDQWLHRDKLIDMLWPGCDPVSGAKNFKTTLSRLRKSFMGPRSINPIMTLGEAIRLDFNIFSLDSSQFKGYAQTGIKMLARGDISGARRYLEAAQDEYSGEFLPEEPFDHHICAERAELERLHESVLTSLQKVYQLEGNNDAVEAISFLKAVHTNS”, which “soluble on expression in E. coli” value is on record?
Answer: Its value is “not soluble”.

Question: Which “soluble on expression in E. coli” value does the source give for “MGSDKIHHHHHHMKLGLLTAPFAETPLADVAAWASSAGFEALEIACWPKTSGATRRYAGTSHIDAASTSPAQAKEITASLAEKHLTISGLGYYPNPLHPDAAHREAVIGHLKKVIELAANMGVPVVNTFCGGDASKTVDVNWQDALKVWPEIVAFARGHGIKLAFENCPMIFSYDEWPGGHNIAYSPQVWRRILETWGGDIGMNFDPSHLVWQMIDQARFIREFGPYMLHVHAKDLMIDHDGLYERGILSAGIGWQVPRMPGLGDVDWSGFFSGLYRAGYDGSVIIEHEDRRFEGSDEQVKRGFLLARDVLRPYVK” here?
Answer: Its value is “not soluble”.

Question: With “MSLQIDEVSKKLNISKSMIRYYEEKGLINISRNQNNYREFNQTVYTTLKLIKDLKRLNLSLEEIKYIVNLFNKPTSKECNIQSTKYLDRIIKDYKRSINEQINILNRLEQVKELSQDMKFEENKTEILNMLAGVKEYDEGHHHHHH” as the sequence, how does the “soluble on expression in E. coli” value read?
Answer: The value was “not soluble”.

Question: With “MLEKYGRCRKRRLLKEVVLILLVAAVQPVLSSSKSTPEAQLTDVELTCPDDWIRHGTKCYLPFNIHQSWPFAMTTCQRYGSTLAKIQTGSENQFIASLLSKPGKPTEGKEYWIGLTVEVLDDDELYLWSDGTPTSRYVGFWRQDQPNFLNGSCALGKVERKDLEWRLDTCNLLRRFVCERPACVQGSYFCSSGSCISESKKCNGHNDCDDGSDEQNCPSAFQPNCRTYEKGESGQLSSTNYPNSYDPNLNCRHVLEGPINSRIELTIEHFETEPDFDILTVLDGGPAENSTTVIKRLSGSMETVQTITSATNMMIVQFRTDAQSNARGWQLKWRAVPFTCGGHFTAQAYIQSFVSPGYPKTFANGAECVWTVESTPGQVVSLIMKSGKTWG” as the sequence, how does the “soluble on expression in E. coli” value read?
Answer: Its value is “not soluble”.

Question: With “MVAIIDASITRFGKRKESLLELAGEVALPLIGKYEIDFVVVSNSYSGEFNSLSGINNLITTYLSVDKVPSIRVDNTSGSGGSAILVAKSLLDSKITKTVLVLGVEKMSEKNTKQVTSVIASLLSPEEKIVGLTLPSLAGLMTKEYMRRYNASREAFALVAVKNHYNGSLNPFAHIQKVVSLEEVLNSPIIADPLTLYEFTPISDGASAIVMVRDEDAYSFTKKPVFI” as the sequence, how does the “soluble on expression in E. coli” value read?
Answer: Its value is “not soluble”.

Question: With “MSQKEQIKTYKGPAGGWGALKAVTRSWWGSENAVKNIRTMLKTNQNGGFDCPGCAWGESPDSGKVNFCENGAKAVNWEATNRLVDPEFFANHSVSSLSTQTDYWLEYQG” as the sequence, how does the “soluble on expression in E. coli” value read?
Answer: The value was “not soluble”.

Question: With “MGSDKIHHHHHHLFNYFQLNDPKDFKHLLNMAGQDILINGKPARALITNTNLTESKDNRNITTLENIESGYLIDYDDGKWLVISEVSGKRYNKYKGIMQKCHNTLTVNIAGILHRVPYVVTNKVNLNIDVTYYLTVLENEIYILVANNTINSNIQLNDIYKIGRFNYKVISMDDISRPGLLLMKMKYSEEGQVLPNYSITILNGDTLTTDTATPVQLNVEQKDGETVLTNPLPMVFTSSDISIATVDSTGMVTPVSVGNVTITVSFESDTTVNDSIVITVEEVEVPETYTLELIGDTEIKQNQTKTYTAVKKNGLGDIVEGATFDFSIDPETTPADKYTLTVLDNTQCSIKANGATYYINLIATDRTDNSLTVSKRIWLKPLF” as the sequence, how does the “soluble on expression in E. coli” value read?
Answer: Its value is “not soluble”.
